Results published in paper PMC7615117, “DNSN-1 recruits GINS for CMG helicase assembly during DNA replication initiation in C. elegans” (Science (New York, N.Y.), 2023).

T1: MCM-4 (C. elegans, UniProt Q95XQ8 1-823)
T1 construct: MCM-4, C. elegans; Subunit of m11, written alone for its interfaces in the structure; source: S. cerevisiae, purified as part of recombinant CMG
T1 sequence: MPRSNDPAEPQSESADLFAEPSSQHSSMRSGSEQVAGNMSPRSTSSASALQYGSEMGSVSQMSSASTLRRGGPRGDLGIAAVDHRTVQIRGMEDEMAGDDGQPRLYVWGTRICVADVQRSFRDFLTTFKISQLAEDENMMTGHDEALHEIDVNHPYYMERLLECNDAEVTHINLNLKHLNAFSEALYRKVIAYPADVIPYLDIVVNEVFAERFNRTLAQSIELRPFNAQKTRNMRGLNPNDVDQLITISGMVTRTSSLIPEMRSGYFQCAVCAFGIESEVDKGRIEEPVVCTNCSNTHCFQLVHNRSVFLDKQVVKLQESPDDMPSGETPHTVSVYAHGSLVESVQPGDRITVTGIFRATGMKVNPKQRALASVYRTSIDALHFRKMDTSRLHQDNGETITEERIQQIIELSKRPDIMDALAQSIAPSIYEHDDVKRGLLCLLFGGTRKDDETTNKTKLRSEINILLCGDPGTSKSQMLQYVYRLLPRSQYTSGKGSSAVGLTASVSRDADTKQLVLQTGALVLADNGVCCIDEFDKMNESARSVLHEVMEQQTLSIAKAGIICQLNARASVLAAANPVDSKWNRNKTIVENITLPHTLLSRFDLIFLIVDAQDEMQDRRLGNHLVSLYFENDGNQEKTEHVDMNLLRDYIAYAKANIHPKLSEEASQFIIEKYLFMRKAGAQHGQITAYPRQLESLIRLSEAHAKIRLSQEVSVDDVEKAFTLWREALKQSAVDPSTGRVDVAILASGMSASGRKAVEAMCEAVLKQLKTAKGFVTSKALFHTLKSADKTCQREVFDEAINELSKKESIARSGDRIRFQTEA

T2: TIM-1 (C. elegans, UniProt G5EDN3 1-1353)
T2 construct: TIM-1, C. elegans; Chain of m13, written alone for its contacts in the structure; source: S. cerevisiae, purified as part of the TIM-1_TIPN-1 complex
T2 sequence: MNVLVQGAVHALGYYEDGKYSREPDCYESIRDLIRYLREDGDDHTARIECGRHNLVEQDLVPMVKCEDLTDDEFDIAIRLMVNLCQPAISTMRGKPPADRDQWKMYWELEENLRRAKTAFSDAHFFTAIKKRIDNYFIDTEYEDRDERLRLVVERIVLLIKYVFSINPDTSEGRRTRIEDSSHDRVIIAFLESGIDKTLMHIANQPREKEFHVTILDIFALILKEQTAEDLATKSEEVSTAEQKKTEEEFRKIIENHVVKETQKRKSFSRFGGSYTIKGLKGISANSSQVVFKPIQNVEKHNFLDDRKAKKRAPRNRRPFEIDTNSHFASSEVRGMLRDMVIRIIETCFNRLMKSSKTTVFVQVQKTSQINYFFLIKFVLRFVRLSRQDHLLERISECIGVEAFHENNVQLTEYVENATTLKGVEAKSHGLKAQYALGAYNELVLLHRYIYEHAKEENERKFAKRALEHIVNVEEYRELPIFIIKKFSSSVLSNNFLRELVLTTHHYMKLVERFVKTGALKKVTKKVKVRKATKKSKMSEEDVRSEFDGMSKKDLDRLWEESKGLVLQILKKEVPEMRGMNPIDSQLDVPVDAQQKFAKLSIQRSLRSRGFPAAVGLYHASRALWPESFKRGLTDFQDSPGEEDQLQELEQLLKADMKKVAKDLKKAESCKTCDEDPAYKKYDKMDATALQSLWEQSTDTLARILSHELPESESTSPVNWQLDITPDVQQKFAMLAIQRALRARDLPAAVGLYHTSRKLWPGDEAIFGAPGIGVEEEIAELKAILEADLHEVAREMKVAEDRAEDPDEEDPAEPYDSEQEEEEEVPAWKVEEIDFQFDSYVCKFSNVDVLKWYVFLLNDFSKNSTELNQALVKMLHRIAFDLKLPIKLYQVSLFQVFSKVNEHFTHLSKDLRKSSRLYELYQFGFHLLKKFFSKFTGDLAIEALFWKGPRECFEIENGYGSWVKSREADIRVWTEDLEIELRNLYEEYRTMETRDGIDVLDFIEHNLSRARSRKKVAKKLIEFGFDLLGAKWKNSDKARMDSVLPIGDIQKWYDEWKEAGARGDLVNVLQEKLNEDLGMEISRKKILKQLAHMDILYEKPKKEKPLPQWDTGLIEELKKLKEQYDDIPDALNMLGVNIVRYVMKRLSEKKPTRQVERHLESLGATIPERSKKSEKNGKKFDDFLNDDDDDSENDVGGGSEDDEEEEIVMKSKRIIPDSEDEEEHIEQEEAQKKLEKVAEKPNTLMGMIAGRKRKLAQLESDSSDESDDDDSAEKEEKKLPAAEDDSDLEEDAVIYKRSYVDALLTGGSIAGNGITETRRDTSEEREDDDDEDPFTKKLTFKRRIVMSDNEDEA

T3: MCM-3 (C. elegans, UniProt Q9XVR7 1-812)
T3 construct: MCM-3, C. elegans; Subunit of m11, written alone for its contacts in the structure; also called MCM-3 subunit of MCM-2-7; source: S. cerevisiae, purified as part of recombinant CMG
T3 sequence: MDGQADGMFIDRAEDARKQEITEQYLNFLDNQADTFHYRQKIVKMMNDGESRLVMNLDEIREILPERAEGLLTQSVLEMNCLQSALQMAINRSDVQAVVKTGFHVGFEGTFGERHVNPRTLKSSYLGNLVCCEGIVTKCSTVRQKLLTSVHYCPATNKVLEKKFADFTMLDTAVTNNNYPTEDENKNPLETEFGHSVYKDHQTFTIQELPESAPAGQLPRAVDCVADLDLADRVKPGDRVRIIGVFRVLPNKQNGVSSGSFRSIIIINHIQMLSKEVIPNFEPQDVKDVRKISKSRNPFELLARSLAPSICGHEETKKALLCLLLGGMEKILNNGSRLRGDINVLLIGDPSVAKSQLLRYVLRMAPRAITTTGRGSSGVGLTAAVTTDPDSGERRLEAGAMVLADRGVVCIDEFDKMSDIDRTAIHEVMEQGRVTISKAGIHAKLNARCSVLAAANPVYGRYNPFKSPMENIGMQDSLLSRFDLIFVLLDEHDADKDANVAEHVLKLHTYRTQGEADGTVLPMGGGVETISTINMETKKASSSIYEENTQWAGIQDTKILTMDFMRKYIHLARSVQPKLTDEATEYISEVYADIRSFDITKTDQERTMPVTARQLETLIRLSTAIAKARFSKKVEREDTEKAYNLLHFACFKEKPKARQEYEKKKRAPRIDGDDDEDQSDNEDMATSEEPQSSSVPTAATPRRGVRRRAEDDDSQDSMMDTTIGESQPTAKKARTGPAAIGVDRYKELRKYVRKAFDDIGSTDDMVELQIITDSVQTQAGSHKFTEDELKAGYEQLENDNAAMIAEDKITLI


Experiments:
Assay in all cases: cryo-EM structure; CMG (125 nM) with fork DNA, AMP-PNP, TIM-1/TIPN-1 and DNSN-1 isoform c (each 1.3-fold molar excess), GraFix gradient with glutaraldehyde and BS3
Conditions in all cases: both partners purified
MCM-4 = target: T1, MCM-4
TIM-1 = target: T2, TIM-1
MCM-3 = target: T3, MCM-3

binding result (TIM-1)	Binder	other results
–	MCM-6 (natural protein, C. elegans, MCM-6, C. elegans; Subunit of m11, written alone for its interface in the structure; source: S. cerevisiae, purified as part of recombinant CMG) MDNIIGGQAQQVEDTDGTRVQNEFSKFLKSFKDQKNEFIYKSAMKELVQPEKNTIFINMQHLYKFSNNLATTIELQYYRVYPFMCEALHLATLDACDESERQQMFKKQLYVSLFNLDAKTKVRELSADKVGGLVRIAGQIVRTHPVHPELSRACFVCEDCGVTTRDVQQQFRYTQPTKCANPQCMNRTRFSLDVNSSTFVDFQKIRIQETQAELPRGSIPRTVDVIVRGEMVETVQPGDKCDIVGTLIVIPDIAQLSTPGLRAETSNQNRGRATDKSEGITGLKALGVRDLTYKMAFLACHIQQTESLVGGDASGAVEETDYLDLWSKMSTEDRATLKKMSDDKKIEKNIVDSLFPNIYGNHEVKLGVLLMLLGGVAKKSRDEGTSLRGDINVCLVGDPSTAKSQVLKAVEEFSPRAIYTSGKASSAAGLTAAVVKDEESFEFVIEAGALMLADNGVCCIDEFDKMDLKDQVAIHEAMEQQTISITKAGVKATLNARASILAAANPVNGRYDRSRPLKYNVQMSAPIMSRFDLFFVLVDECNEVTDYAIARRILDNHRAISEHTERDSVYKIDDIKKYIAFARCFKPKISDKAAETLVREYKKLRMSDSNNAATSSWRITVRQLESLVRLSEALARLHCGKEVLVEHVEKAAELLNKSIVRVEQPDIALDDDDFDNNIMVVEADKENQRGDDSMDHDGEKENAPKIDIAKLKISFKEYKQLSDVLVLHMRSDEDNQGEDEYDGVKQSALVEWYLSTIEADLETEEDFNVQKTICERVIHRLIHQDHVLLEVEQGEDPTLCVHPNYVIADE	binding result (MCM-4): binds
binds	MCM-2 (natural protein, C. elegans, MCM-2, C. elegans; Subunit of m11, written alone for its contacts in the structure; source: S. cerevisiae, purified as part of recombinant CMG) MADRANNDDDVDRQPLPIADDADDDVDGIDEMFNNEDEDPEDEEGENLFGDDMERDYREQPELDQYSESGMDDASDVGSLSVSARRAAEREMAQRDQLLDDDALMYEDGDSEEVDTRRRGRGRRGRGDAADDDSVPMEEEDIPVDILENIRGRTIRDHVSDEAVAKEIERRFKNFLRSFHEPGNKQTKYIQMIKSMAADNRESLEVSFTDLSDDNGEQNISYFLPEAPNEMLAIMDRAATEVVMNMYPFYSRVCNEIKVRISQLPVEEDIRMLRQVHLNMLIRTAGVVTIASGILPQLAVVKYDCVACGYLLGPFVQQNDEEVRPTICPSCQGKGPFELNVENTVYHNYQRITMQESPNKVAAGRLPRSKDVILLGDLCDSCKPGDEIEVTGVYTNNFDGSLNYKQGFPVFNTLIHANHITNKDKMASDQLTDEDIKAIRELSQDPNISQRVFSSIAPSIYGHDDVKRAIALALFRGEAKNPGAKHRLRGDINVLLCGDPGTAKSQFLRYAAHIAPRSVLTTGQGASAVGLTAYVQRHPVTREWTLEAGAMVLADKGVCLIDEFDKMSDQDRTSIHEAMEQQSISISKAGIVTSLHARCTVIAASNPIGGRYNPTRTFAENVDLTEPILSRFDVLCVIRDSVDSVEDERLAKFVVGNHRTHHPDAKKIVKEGDELEEDQMDERTGVRLIPQDLLRKYIIYAREKCHPTLPEQHSEKFSNIFAQMRKESMATGSVAITVRHVESMIRLSEAHAKLHLRSYVNDEDCAAAIRVMLESFVNTQKASIMRMMKKTFSRHLTENRSANELLLFILKQLIRQQMHYATARAAAGTILQSVTIPESEFIEKAQQLRIENVKPFYTSEIFASNNFLYDPSKKTIVQEIF	–
–	MCM-5 (natural protein, C. elegans, MCM-5, C. elegans; Subunit of m11, written alone for its interface in the structure; source: S. cerevisiae, purified as part of recombinant CMG) MSNLDNPGIYYQERFFANDGVPDTGRELIAEYRQLITQFRNFIRDFSTGGFGMIYRDQLKRNYFSHEYRLEINLNHLKNFDEDIEMKLRKFPGKVLPALEEAAKIVADEITTPRPKGEEKLHDIQVTLTLDEYPTSLRQVKSAQVSQVVKISGIIVAAAQVRSKATKVTLQCRQCKHTIPDVSIKPGLEGFALPRTCAAPQQGQMQRCPIDPYIMLPDKCECVDYQTLKLQENPEDVPHGEMPRHLQLFTERYLTDKVVPGNRVTIVGVYSIKKLIQKKGGDKSLQGIRTPYLRVLGIHMETSGPGRTNFTTFTPEEERMFKTLAQRKDAYELIAKSIAPSIYGSADIKKSIACLLFGGARKKLPDGITRRGDINVLLLGDPGTAKSQLLKFVEQVSPIGVYTSGKGSSAAGLTASVIRDPQSRSFIMEGGAMVLADGGVVCIDEFDKMREDDRVAIHEAMEQQTISIAKAGITTTLNSRCSVLAAANSVYGRWDESRGDDNIDFMPTILSRFDMIYIVKDTHDVLKDATLAKHVIEVHVNASAAKERDIAGVPKTATTDSDGVMTMFDTDGFLTIEFLKKFVTYARLNCGPRLTPQASEKLVNHYVKMRNPVVNADAFKSGKKAHNSAIPITVRQLEAIVRIAESIAKMELQQFATDKHVEEALRLFRVSTIEAAATGNLAGVEGFTSTADQEALNRIEVQMKKRFAIGTHVSEHLIVQDFVARQHYRESLVKKVIDNLVRRGDLQQKMQRKMLYRVR	binding result (MCM-3): binds
binds	TIPN-1 (natural protein, C. elegans, TIPN-1, C. elegans; Chain of m13, written alone; source: S. cerevisiae, purified as part of the TIM-1_TIPN-1 complex) MDEMEDFFENDELDREPSPMGDEAIEDNSGEGGTRRVVEPKLLRTKRLANPRLALNERILTGPKGISALRETLKDFKPNPKDDPYANLEKLMKKYAYWGHLMFPKMKTEDVLNRVETLGTRRQVKVFMIKHRLGETGEDSEHEEQENQKNGIIDDGASDNDDDLFKDLPEKEVTTEKAKNSEKSDQKTAEIDENVEEEYRMMEEERLREEQEAKEAADEDALMEDFGDMNNDW	–
